Test results taken from patent US20200079833A1 (AstraZeneca / MedImmune, published 2020).
Starred links: 1 amine or outer side, 2 acyl side, 3 side chain; linkers in the order of their positions; H or OH if unused. Non-standard residues stand in square brackets, D forms with d. Groups on a side chain read outwards from the residue. Primed or numbered codes have the meaning given here. No end group written: not given here. *: point of attachment. γGlu = O=C(O)[C@H](CCC(=O)[*:2])N[*:1]; Palmitoyl = CCCCCCCCCCCCCCCC(=O)*; αMeF = C[C@](N)(Cc1ccccc1)C(=O)O; αMeK = C[C@](N)(CCCCN)C(=O)O; Lauroyl = CCCCCCCCCCCC(=O)*; PEG2′ = not defined here; Aib = CC(C)(N)C(=O)O

Molecular target: glucagon receptor (GCGR), primary cAMP assay (human, UniProt P47871 26-477)
Sequence (P47871 26-477): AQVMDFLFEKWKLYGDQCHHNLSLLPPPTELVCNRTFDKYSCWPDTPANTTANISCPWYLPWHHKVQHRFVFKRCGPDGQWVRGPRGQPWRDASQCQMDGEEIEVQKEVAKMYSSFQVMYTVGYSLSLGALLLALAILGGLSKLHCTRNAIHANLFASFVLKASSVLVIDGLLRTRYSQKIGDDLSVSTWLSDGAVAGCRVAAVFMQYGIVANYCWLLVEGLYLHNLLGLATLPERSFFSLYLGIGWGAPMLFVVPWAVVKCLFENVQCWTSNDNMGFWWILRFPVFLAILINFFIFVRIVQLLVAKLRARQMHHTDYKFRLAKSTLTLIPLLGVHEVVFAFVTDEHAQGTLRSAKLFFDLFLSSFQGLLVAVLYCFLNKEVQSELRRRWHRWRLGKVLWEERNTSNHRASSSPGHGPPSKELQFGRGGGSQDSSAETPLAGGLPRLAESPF
Assay: cell-based or functional assay

Row | Binder | Primary assay EC50 (cAMP), n1 [nM] | Primary assay EC50 (cAMP), n2 [nM]
1 | H[Aib]EGS[αMeF]TSDVSK([PEG2′-PEG2′-γGlu-Palmitoyl])FLEGEAAEEFIK([PEG2′-PEG2′-γGlu-Palmitoyl])FVVEGG-NH2 [SEQ ID NO: 247] | 21.6 | 21.6
2 | H[Aib]EGS[αMeF]TSDK([PEG2′-PEG2′-γGlu-Lauroyl])SSYLEGEAA[αMeK]EFIK([PEG2′-PEG2′-γGlu-Lauroyl])WVVEGG-NH2 [SEQ ID NO: 256] | 22.2 | 22.2
3 | H[Aib]EGS[αMeF]TSDVSK([PEG2′-PEG2′-γGlu-Palmitoyl])FLEGEAA[αMeK]EFIK([PEG2′-PEG2′-γGlu-Palmitoyl])FVVEGG-NH2 [SEQ ID NO: 250] | 21.6 | 21.6

Further lines, results first:

Row | Primary assay EC50 (cAMP), n1 [nM] | Primary assay EC50 (cAMP), n2 [nM] | Binder
4 | 22.2 | 22.2 | H[Aib]EGS[αMeF]TSDVSK([PEG2′-PEG2′-γGlu-Lauroyl])YLEGEAAEEFIK([PEG2′-PEG2′-γGlu-Lauroyl])WVVEGG-NH2 [SEQ ID NO: 240]
5 | 22.4 | 22.4 | H[Aib]EGTFTSDVSK([PEG2′-PEG2′-γGlu-Lauroyl])YLEGEAAEEFIK([PEG2′-PEG2′-γGlu-Lauroyl])FVVEGG-NH2 [SEQ ID NO: 238]
6 | 21.4 | 21.4 | H[Aib]EGS[αMeF]TSDVSK([PEG2′-PEG2′-γGlu-Palmitoyl])YLEGEAAEEFIK([PEG2′-PEG2′-γGlu-Palmitoyl])WVVEGG-NH2 [SEQ ID NO: 246]
7 | 22.4 | 22.4 | H[Aib]EGS[αMeF]TSDVSK([PEG2′-PEG2′-γGlu-Lauroyl])FLEGEAA[αMeK]EFIK([PEG2′-PEG2′-γGlu-Lauroyl])FVVEGG-NH2 [SEQ ID NO: 248]

Molecular target: T1, glucose-dependent insulinotropic peptide (gastric inhibitory polypeptide) receptor (GIPR), primary cAMP assay (human, UniProt P48546 22-466)
T1 sequence (looked up): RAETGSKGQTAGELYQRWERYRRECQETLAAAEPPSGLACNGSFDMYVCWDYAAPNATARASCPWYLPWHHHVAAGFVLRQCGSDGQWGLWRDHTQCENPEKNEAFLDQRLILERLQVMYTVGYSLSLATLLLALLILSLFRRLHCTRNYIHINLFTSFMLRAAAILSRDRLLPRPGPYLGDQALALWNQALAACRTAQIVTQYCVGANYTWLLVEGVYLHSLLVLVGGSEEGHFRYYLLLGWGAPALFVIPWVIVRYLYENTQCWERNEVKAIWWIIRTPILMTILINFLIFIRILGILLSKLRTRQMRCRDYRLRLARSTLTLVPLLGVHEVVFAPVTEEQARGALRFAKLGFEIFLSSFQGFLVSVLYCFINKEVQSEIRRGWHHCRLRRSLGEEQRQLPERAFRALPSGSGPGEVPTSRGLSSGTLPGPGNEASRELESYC
Assay: cell-based or functional assay

Row | Binder | Primary assay EC50 (cAMP), n1 [nM] | Primary assay EC50 (cAMP), n2 [nM]
8 | H[Aib]EGS[αMeF]TSDVSK([PEG2′-PEG2′-γGlu-Palmitoyl])FLEGEAAEEFIK([PEG2′-PEG2′-γGlu-Palmitoyl])FVVEGG-NH2 [SEQ ID NO: 247] | 21.6 | 21.6
9 | H[Aib]EGS[αMeF]TSDK([PEG2′-PEG2′-γGlu-Lauroyl])SSYLEGEAA[αMeK]EFIK([PEG2′-PEG2′-γGlu-Lauroyl])WVVEGG-NH2 [SEQ ID NO: 256] | 22.2 | 22.2
10 | H[Aib]EGS[αMeF]TSDVSK([PEG2′-PEG2′-γGlu-Palmitoyl])FLEGEAA[αMeK]EFIK([PEG2′-PEG2′-γGlu-Palmitoyl])FVVEGG-NH2 [SEQ ID NO: 250] | 21.6 | 21.6

Second part, the binder after the results:

Row | Primary assay EC50 (cAMP), n1 [nM] | Primary assay EC50 (cAMP), n2 [nM] | Binder
11 | 22.2 | 22.2 | H[Aib]EGS[αMeF]TSDVSK([PEG2′-PEG2′-γGlu-Lauroyl])YLEGEAAEEFIK([PEG2′-PEG2′-γGlu-Lauroyl])WVVEGG-NH2 [SEQ ID NO: 240]
12 | 22.4 | 22.4 | H[Aib]EGTFTSDVSK([PEG2′-PEG2′-γGlu-Lauroyl])YLEGEAAEEFIK([PEG2′-PEG2′-γGlu-Lauroyl])FVVEGG-NH2 [SEQ ID NO: 238]
13 | 21.4 | 21.4 | H[Aib]EGS[αMeF]TSDVSK([PEG2′-PEG2′-γGlu-Palmitoyl])YLEGEAAEEFIK([PEG2′-PEG2′-γGlu-Palmitoyl])WVVEGG-NH2 [SEQ ID NO: 246]
14 | 22.4 | 22.4 | H[Aib]EGS[αMeF]TSDVSK([PEG2′-PEG2′-γGlu-Lauroyl])FLEGEAA[αMeK]EFIK([PEG2′-PEG2′-γGlu-Lauroyl])FVVEGG-NH2 [SEQ ID NO: 248]

Molecular target: GLP-1 receptor (GLP-1R), primary cAMP assay (human, UniProt P43220 24-463)
Assay: cell-based or functional assay

Row | Binder | Primary assay EC50 (cAMP) Mean [nM] | Primary assay EC50 (cAMP), n1 [nM] | Primary assay EC50 (cAMP), n2 [nM]
15 | H[Aib]EGS[αMeF]TSDVSK([PEG2′-PEG2′-γGlu-Palmitoyl])FLEGEAAEEFIK([PEG2′-PEG2′-γGlu-Palmitoyl])FVVEGG-NH2 [SEQ ID NO: 247] | 1.67 | 1.31 | 2.02
16 | H[Aib]EGS[αMeF]TSDK([PEG2′-PEG2′-γGlu-Lauroyl])SSYLEGEAA[αMeK]EFIK([PEG2′-PEG2′-γGlu-Lauroyl])WVVEGG-NH2 [SEQ ID NO: 256] | 0.0075 | 0.00946 | 0.00557
17 | H[Aib]EGS[αMeF]TSDVSK([PEG2′-PEG2′-γGlu-Palmitoyl])FLEGEAA[αMeK]EFIK([PEG2′-PEG2′-γGlu-Palmitoyl])FVVEGG-NH2 [SEQ ID NO: 250] | 0.0451 | 0.0292 | 0.061

Results, then the binder that gave them:

Row | Primary assay EC50 (cAMP) Mean [nM] | Primary assay EC50 (cAMP), n1 [nM] | Primary assay EC50 (cAMP), n2 [nM] | Binder
18 | 0.014 | 0.0109 | 0.0171 | H[Aib]EGS[αMeF]TSDVSK([PEG2′-PEG2′-γGlu-Lauroyl])YLEGEAAEEFIK([PEG2′-PEG2′-γGlu-Lauroyl])WVVEGG-NH2 [SEQ ID NO: 240]
19 | 0.011 | 0.00875 | 0.0132 | H[Aib]EGTFTSDVSK([PEG2′-PEG2′-γGlu-Lauroyl])YLEGEAAEEFIK([PEG2′-PEG2′-γGlu-Lauroyl])FVVEGG-NH2 [SEQ ID NO: 238]
20 | 1.4 | 0.999 | 1.8 | H[Aib]EGS[αMeF]TSDVSK([PEG2′-PEG2′-γGlu-Palmitoyl])YLEGEAAEEFIK([PEG2′-PEG2′-γGlu-Palmitoyl])WVVEGG-NH2 [SEQ ID NO: 246]
21 | 0.005 | 0.00377 | 0.0062 | H[Aib]EGS[αMeF]TSDVSK([PEG2′-PEG2′-γGlu-Lauroyl])FLEGEAA[αMeK]EFIK([PEG2′-PEG2′-γGlu-Lauroyl])FVVEGG-NH2 [SEQ ID NO: 248]

Molecular target: T2, GLP-1R in the INS1e assay (UniProt P32301 22-463, limits assumed)
T2 sequence (looked up): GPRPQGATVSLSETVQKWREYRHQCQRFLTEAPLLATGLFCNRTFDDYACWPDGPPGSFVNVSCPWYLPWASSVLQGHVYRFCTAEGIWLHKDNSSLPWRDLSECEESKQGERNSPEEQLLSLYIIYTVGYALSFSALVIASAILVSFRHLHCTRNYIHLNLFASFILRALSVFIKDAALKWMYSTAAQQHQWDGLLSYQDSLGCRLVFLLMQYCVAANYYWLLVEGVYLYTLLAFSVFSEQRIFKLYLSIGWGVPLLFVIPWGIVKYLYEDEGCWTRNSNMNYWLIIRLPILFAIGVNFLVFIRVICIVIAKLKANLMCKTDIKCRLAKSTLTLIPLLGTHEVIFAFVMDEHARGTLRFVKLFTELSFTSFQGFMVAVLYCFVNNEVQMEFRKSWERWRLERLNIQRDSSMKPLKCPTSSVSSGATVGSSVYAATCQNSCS
Assay: cell-based or functional assay

Row | Binder | INS1e assay EC50 (cAMP) Mean [nM] | INS1e assay EC50 (cAMP) n1 [nM] | INS1e assay EC50 (cAMP) n2 [nM]
22 | H[Aib]EGS[αMeF]TSDVSK([PEG2′-PEG2′-γGlu-Palmitoyl])FLEGEAAEEFIK([PEG2′-PEG2′-γGlu-Palmitoyl])FVVEGG-NH2 [SEQ ID NO: 247] | 72.1 | 72.1 | 72.1
23 | H[Aib]EGS[αMeF]TSDK([PEG2′-PEG2′-γGlu-Lauroyl])SSYLEGEAA[αMeK]EFIK([PEG2′-PEG2′-γGlu-Lauroyl])WVVEGG-NH2 [SEQ ID NO: 256] | 1.29 | 1.25 | 1.34
24 | H[Aib]EGS[αMeF]TSDVSK([PEG2′-PEG2′-γGlu-Palmitoyl])FLEGEAA[αMeK]EFIK([PEG2′-PEG2′-γGlu-Palmitoyl])FVVEGG-NH2 [SEQ ID NO: 250] | 38.1 | 36.7 | 39.4

The remaining lines, values ahead:

Row | INS1e assay EC50 (cAMP) Mean [nM] | INS1e assay EC50 (cAMP) n1 [nM] | INS1e assay EC50 (cAMP) n2 [nM] | Binder
25 | 6.02 | 6.86 | 5.17 | H[Aib]EGS[αMeF]TSDVSK([PEG2′-PEG2′-γGlu-Lauroyl])YLEGEAAEEFIK([PEG2′-PEG2′-γGlu-Lauroyl])WVVEGG-NH2 [SEQ ID NO: 240]
26 | 13.7 | 15 | 12.4 | H[Aib]EGTFTSDVSK([PEG2′-PEG2′-γGlu-Lauroyl])YLEGEAAEEFIK([PEG2′-PEG2′-γGlu-Lauroyl])FVVEGG-NH2 [SEQ ID NO: 238]
27 | 71.3 | 71.3 | 71.3 | H[Aib]EGS[αMeF]TSDVSK([PEG2′-PEG2′-γGlu-Palmitoyl])YLEGEAAEEFIK([PEG2′-PEG2′-γGlu-Palmitoyl])WVVEGG-NH2 [SEQ ID NO: 246]
28 | 0.403 | 0.337 | 0.468 | H[Aib]EGS[αMeF]TSDVSK([PEG2′-PEG2′-γGlu-Lauroyl])FLEGEAA[αMeK]EFIK([PEG2′-PEG2′-γGlu-Lauroyl])FVVEGG-NH2 [SEQ ID NO: 248]
